Source: patent US20240376151A1, “STAPLED PEPTIDES AND METHODS THEREOF” (FOG PHARMACEUTICALS, INC., priority 2022, published 2024)
Numbered stars: 1 amine (or outer) side, 2 acyl side, 3 side chain; on linkers, the order of the positions; unused ones are H or OH. Bridge positions count the residues as written; N and C are the ends. Ends that are not written are not given here. Phenylene(1,4-NHCOCH2)2 = O=C(C[*:1])Nc1ccc(NC(=O)C[*:2])cc1

Biological target: T1, WWP2^HECT (Homo sapiens, UniProt O00308)
T1 construct: GST-TEV (N, cleaved yes); made in house; host or cells: Escherichia coli BL21 (DE3)
Assay: Naive Library Presenter Screening (phage, NGS), WWP2^HECT
Assay type: binding
Conditions: for interaction data at Target Concentration 10: WWP2 target concentration 10 nM; for interaction data at Target Concentration 30: WWP2 target concentration 30 nM; for interaction data at Target Concentration 100: WWP2 target concentration 100 nM; for interaction data at Target Concentration 300: WWP2 target concentration 300 nM; for interaction data at Target Concentration 1000: WWP2 target concentration 1000 nM

T1 sequence (O00308 492-865): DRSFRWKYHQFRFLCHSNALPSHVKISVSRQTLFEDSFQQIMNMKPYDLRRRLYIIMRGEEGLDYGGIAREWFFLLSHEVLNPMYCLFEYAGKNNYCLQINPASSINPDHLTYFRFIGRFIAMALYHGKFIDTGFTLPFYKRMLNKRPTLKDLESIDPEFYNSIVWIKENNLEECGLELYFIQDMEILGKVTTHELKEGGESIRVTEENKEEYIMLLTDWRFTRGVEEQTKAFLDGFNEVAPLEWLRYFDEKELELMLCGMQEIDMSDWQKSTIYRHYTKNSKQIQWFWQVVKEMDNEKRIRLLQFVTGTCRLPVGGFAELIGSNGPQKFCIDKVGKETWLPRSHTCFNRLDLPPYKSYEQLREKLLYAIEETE

Sequence	interaction data at Target Concentration 10	interaction data at Target Concentration 30	interaction data at Target Concentration 100	interaction data at Target Concentration 300	interaction data at Target Concentration 1000 (first column)	interaction data at Target Concentration 1000 (second column)
DPAMWDCRYAALDCYMT (DPAMWDCRYAALDCYMT-NH2; linker 7-14 via Phenylene(1,4-NHCOCH2)2; N-terminus assumed; SMILES CSCC[C@H](NC(=O)[C@H](C)NC(=O)[C@@H]1CCCN1C(=O)[C@@H](N)CC(=O)O)C(=O)N[C@@H](Cc1c[nH]c2ccccc12)C(=O)N[C@@H](CC(=O)O)C(=O)N[C@H]1CSCC(=O)Nc2ccc(cc2)NC(=O)CSC[C@@H](C(=O)N[C@@H](Cc2ccc(O)cc2)C(=O)N[C@@H](CCSC)C(=O)N[C@H](C(N)=O)[C@@H](C)O)NC(=O)[C@H](CC(=O)O)NC(=O)[C@H](CC(C)C)NC(=O)[C@H](C)NC(=O)[C@H](C)NC(=O)[C@H](Cc2ccc(O)cc2)NC(=O)[C@H](CCCNC(=N)N)NC1=O)	0	0	6	23	62	24
DPAIQNCRSAADVCMFF (linker 7-14 via Phenylene(1,4-NHCOCH2)2; not fully specified (C-terminus))	0	65	96	109	117	127
DPAQNMCQAAADVCMFF (DPAQNMCQAAADVCMFF-NH2; linker 7-14 via Phenylene(1,4-NHCOCH2)2; N-terminus assumed; SMILES CSCC[C@H](NC(=O)[C@H](CC(N)=O)NC(=O)[C@H](CCC(N)=O)NC(=O)[C@H](C)NC(=O)[C@@H]1CCCN1C(=O)[C@@H](N)CC(=O)O)C(=O)N[C@H]1CSCC(=O)Nc2ccc(cc2)NC(=O)CSC[C@@H](C(=O)N[C@@H](CCSC)C(=O)N[C@@H](Cc2ccccc2)C(=O)N[C@@H](Cc2ccccc2)C(N)=O)NC(=O)[C@H](C(C)C)NC(=O)[C@H](CC(=O)O)NC(=O)[C@H](C)NC(=O)[C@H](C)NC(=O)[C@H](C)NC(=O)[C@H](CCC(N)=O)NC1=O)	2	67	51	125	120	127
DPATWDCQQAAHHCWVL (linker 7-14 via Phenylene(1,4-NHCOCH2)2 (inferred); not fully specified (C-terminus))	0	0	2	23	35	66
DPAANYCEAAADTCQFF (linker 7-14 via Phenylene(1,4-NHCOCH2)2 (inferred))	0	179	254	297	283	378
DPALWECMTAADWCMFM (linker 7-14 via Phenylene(1,4-NHCOCH2)2; not fully specified (C-terminus))	1	24	17	18	28	32
